# Results from patent publication US20070004634A1 (published 2007).
# Values joined by “and” are separate entries in the source; they are usually repeats but may differ in a detail not shown here. Equal entries are not always repeated. Where two headings read alike, the source gives them in different places. Positions of bridges follow the written chain, without caps; N, C: chain ends. No end group written: not given here. MBP = maltose binding protein (pMAL-c2)
# B1: MBP fusion 464 (LF-H2C) (other, not shown: large carriers; small tags and cut ends)
# chain: {MBP}-NNNNLGIEGRISEFIEGRDYKDDDDKFHENFYDWFVRQVSAAGAPVPYPDPLEPRAA
# notes: LF = long FLAG; also called RB464
# B2: MBP fusion 435 (H2C-3aa-H2C-3aa-H2C) (other, not shown: large carriers; small tags and cut ends)
# chain: NNNNLGIEGRISEFIEGRAQPAMAFHENFYDWFVRQVSGGSFHENFYDWFVRQVSGGSFHENFYDWFVRQVSAAAGAPVPYPDPLEPRAA
# modifications: N-terminus of the given chain is fused to the C-terminus of MBP, which is not given
# notes: also called RB435
# B3: D112-12-RP30-IGF (peptide)
# chain: ADYKDCWARPCGDAANFYDWFVQQASKKGGSGGSGGSGGSSFYSCLESLVNGGAERSDGQWEGCRAAAGAPVPYPDPLEPRPG
# B4: D112-12-D112 (peptide)
# chain: ADYKDCWARPCGDAANFYDWFVQQASKKGGSGGSGGSGGSCWARPCGDAANFYDWFVQQASKKAAAGAPVPYPDPLEPRPG
# B5: RP30-IGF-12-D112 (peptide)
# chain: ADYKDSFYSCLESLVNGGAERSDGQWEGCRGGSGGSGGSGGSCWARPCGDAANFYDWFVQQASKKAAAGAPVPYPDPLEPRPG
# B6: MBP fusion 463 (H2C-3aa-H2C) (other, not shown: large carriers; small tags and cut ends)
# chain: NNNNLGIEGRISEFIEGRAQPAMAFHENFYDWFVRQVSGGSFHENFYDWFVRQVSAAAGAPVPYPDPLEPRAA
# modifications: N-terminus of the given chain is fused to the C-terminus of MBP, which is not given
# notes: also called RB463
# Experiments:
# [1] = biological target: T1, soluble human insulin receptor-immunoglobulin heavy chain chimera (sIR-Fc; Bass et al., 1996) (human, UniProt P06213-2 28-944); assay: phage ELISA
# T1 construct: extracellular domain; also called soluble IR (Bass construct); Eu3+-sIR-Fc; not shown: immunoglobulin heavy chain constant domains per Bass et al., 1996
# [2] = biological target: T2, human insulin receptor (HIR) (human, UniProt P06213-2 28-1370, limits assumed); assay: HIR binding assay of MBP fusions (method not restated)
# [3] = biological target: T3, IGF-1R on cells (MCF-7, MiaPaCa, FDC-P2 cells expressing human IGF-1R) (human, UniProt P08069 31-1367); assay: cell-based or functional assay
# [4] = biological target: T4, His-tagged soluble recombinant human IGF-IR (srhIGF-1R-his) (human, UniProt P08069 31-935); assay: ALPHAScreen competition against b-hIGF-1 on srhIGF-1R-his
# T4 construct: extracellular domain; Bought construct; not shown: His tag
# [5] = biological target: T2, human insulin receptor (HIR); assay: HIR binding assay (method not restated)
# [6] = biological target: T3, IGF-1R on cells (MCF-7, MiaPaCa, FDC-P2 …); assay: cell-based or functional assay; remark: listed apart in the source
# [7] = biological target: T3, IGF-1R on cells (MCF-7, MiaPaCa, FDC-P2 …); assay: cell-based or functional assay; remark: listed apart in the source
# [8] = biological target: T4, His-tagged soluble recombinant human …; assay: ALPHAScreen competition against b-hIGF-1 on srhIGF-1R-his; remark: listed apart in the source
# [9] = biological target: T4, His-tagged soluble recombinant human …; assay: as above; remark: listed apart in the source
# [10] = biological target: T3, IGF-1R on cells (MCF-7, MiaPaCa, FDC-P2 …); assay: cell-based or functional assay; remark: listed apart in the source
# [11] = biological target: T4, His-tagged soluble recombinant human …; assay: ALPHAScreen competition against b-hIGF-1 on srhIGF-1R-his; remark: listed apart in the source
# [12] = biological target: T5, soluble IGF-1R (recombinant human IGF-1R extracellular domain, R&D Systems Cat. # 391-GR/CF) (human, UniProt P08069 31-935); assay: phage ELISA
# T5 construct: extracellular domain; LANCE Eu3+-labelled in the TR-FRET assays; also called sIGF-1R; rhIGF-1R
# [13] = biological target: T3, IGF-1R on cells (MCF-7, MiaPaCa, FDC-P2 …); assay: cell-based or functional assay; remark: listed apart in the source
# [14] = biological target: T4, His-tagged soluble recombinant human …; assay: ALPHAScreen competition against b-hIGF-1 on srhIGF-1R-his; remark: listed apart in the source
# [15] = biological target: T6, soluble human insulin receptor-immunoglobulin heavy chain chimera (sIR-Fc) (human, UniProt P06213-2 28-944, limits assumed); assay: FP competition against FITC-RP9 on sIR-Fc
# T6 construct: extracellular domain; not shown: immunoglobulin heavy chain constant domains
# [16] = biological target: T3, IGF-1R on cells (MCF-7, MiaPaCa, FDC-P2 …); assay: cell-based or functional assay; remark: listed apart in the source
# [17] = biological target: T4, His-tagged soluble recombinant human …; assay: ALPHAScreen competition against b-hIGF-1 on srhIGF-1R-his; remark: listed apart in the source
# T1 sequence (P06213 other isoform, or with tags, fused parts or gaps mutant): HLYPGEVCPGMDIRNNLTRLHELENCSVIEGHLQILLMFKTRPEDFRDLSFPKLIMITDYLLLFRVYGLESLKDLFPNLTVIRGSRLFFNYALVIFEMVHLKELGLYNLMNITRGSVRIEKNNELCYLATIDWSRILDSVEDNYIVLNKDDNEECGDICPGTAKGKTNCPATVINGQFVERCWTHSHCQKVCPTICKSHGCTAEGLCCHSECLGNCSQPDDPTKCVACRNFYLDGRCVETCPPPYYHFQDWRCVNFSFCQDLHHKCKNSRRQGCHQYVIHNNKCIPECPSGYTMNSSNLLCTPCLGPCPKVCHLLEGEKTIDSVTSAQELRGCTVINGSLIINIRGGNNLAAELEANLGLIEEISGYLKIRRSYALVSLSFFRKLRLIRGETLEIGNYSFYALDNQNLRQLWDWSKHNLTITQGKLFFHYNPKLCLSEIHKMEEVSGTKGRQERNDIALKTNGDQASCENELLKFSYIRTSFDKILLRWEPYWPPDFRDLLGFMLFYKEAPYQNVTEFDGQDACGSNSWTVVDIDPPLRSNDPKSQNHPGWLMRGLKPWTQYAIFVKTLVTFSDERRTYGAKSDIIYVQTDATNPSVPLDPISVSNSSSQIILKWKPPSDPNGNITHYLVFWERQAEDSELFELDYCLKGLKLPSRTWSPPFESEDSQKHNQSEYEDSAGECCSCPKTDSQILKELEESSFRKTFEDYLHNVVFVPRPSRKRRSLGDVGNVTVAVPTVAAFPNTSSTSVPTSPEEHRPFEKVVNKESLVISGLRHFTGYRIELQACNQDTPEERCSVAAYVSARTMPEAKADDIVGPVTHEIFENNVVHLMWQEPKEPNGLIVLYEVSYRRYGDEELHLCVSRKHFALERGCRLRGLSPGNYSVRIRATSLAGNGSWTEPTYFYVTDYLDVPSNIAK
# T2 sequence (P06213 other isoform, or with tags, fused parts or gaps limits assumed): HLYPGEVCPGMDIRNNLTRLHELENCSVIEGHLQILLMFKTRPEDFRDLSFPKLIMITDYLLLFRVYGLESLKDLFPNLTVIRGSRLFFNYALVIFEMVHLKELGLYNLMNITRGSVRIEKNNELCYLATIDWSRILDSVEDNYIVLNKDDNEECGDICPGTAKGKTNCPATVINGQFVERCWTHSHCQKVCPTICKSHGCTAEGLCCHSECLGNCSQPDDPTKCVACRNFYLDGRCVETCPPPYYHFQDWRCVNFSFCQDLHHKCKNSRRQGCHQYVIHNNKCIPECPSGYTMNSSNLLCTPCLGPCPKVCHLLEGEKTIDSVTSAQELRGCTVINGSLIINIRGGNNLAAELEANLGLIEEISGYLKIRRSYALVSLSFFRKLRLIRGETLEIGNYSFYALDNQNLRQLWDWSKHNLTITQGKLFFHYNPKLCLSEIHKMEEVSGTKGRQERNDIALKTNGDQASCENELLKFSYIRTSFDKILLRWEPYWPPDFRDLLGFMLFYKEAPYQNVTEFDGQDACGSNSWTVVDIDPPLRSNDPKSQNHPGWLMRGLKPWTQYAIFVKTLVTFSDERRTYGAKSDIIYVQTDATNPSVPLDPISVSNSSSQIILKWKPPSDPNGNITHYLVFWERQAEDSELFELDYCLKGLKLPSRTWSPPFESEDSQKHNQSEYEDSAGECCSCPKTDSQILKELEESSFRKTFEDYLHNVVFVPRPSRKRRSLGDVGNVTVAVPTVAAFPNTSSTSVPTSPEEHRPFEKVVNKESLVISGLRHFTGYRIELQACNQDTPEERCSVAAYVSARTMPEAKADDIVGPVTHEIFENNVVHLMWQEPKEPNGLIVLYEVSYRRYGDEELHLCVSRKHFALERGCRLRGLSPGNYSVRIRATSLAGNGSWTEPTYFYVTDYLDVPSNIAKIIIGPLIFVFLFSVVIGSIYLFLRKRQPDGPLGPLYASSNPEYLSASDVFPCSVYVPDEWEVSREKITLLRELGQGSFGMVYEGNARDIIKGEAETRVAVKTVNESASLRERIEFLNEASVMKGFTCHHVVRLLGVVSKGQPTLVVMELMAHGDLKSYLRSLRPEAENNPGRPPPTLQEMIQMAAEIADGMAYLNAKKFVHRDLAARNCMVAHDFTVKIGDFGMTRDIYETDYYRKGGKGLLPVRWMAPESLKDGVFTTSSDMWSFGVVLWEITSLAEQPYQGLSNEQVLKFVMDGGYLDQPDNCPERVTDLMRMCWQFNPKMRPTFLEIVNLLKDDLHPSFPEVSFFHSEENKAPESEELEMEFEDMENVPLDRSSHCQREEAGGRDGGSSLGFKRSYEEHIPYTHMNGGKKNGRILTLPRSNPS
# T6 sequence (P06213 other isoform, or with tags, fused parts or gaps mutant limits assumed): as the sequence (P06213 other isoform, or with tags, fused parts or gaps mutant) above
binder,measurement,setting,value
RGMKEEVLVGGSTDPFYHKLSELLQGS [B6Hα-3-F11-IR],IR/IGF-1R ratio comparison,[1],0.1
RGAVAGFHDQFYDWFDRQVSRVHKFG [H2CA-4-H9-IGFR],IR/IGF-1R ratio comparison,[1],0.3
same,ratio over background,[1],1.9
B1,Kd,[2],39 nM
GSLDESFYDWFERQLG [RP9],"Cellular IC50 (M), FDC-P2 cell proliferation",[3],2e-06 M
same,IC50,[4],970 nM
B2,Kd,[5],2000 nM
same,Kd,[2],2000 nM
GGTKAVAKVGTRDDPFYHKLSELLQGS [B6Hα-4-G8-IR],IR/IGF-1R ratio comparison,[1],0.3
QPDHSYFYSLLQELVGSEERL [20E2B-4-F9-IGFR],IR/IGF-1R ratio comparison,[1],0.1
B3,"Cellular EC50 (M), MCF-7 cell proliferation",[6],2.5e-07 M
same,"Cellular EC50 (M), MiaPaCa cell proliferation",[7],2.2e-06 M
same,IC50,[8],170 nM
same,IC50,[9],170 nM
GCVVEWQKWHGASDPFYHKLSELGGCS [B6Hα-3-F10-IR],IR/IGF-1R ratio comparison,[1],0.2
QPAPDGFYSALMKLIGRGGVS [20E2B-3-C8-IGFR],IR/IGF-1R ratio comparison,[1],0.1
EGYSWLRDVLMEKQAQLKREGSVGRQE [RP56],"Cellular IC50 (M), MiaPaCa cell proliferation",[10],9.4e-06 M
same,IC50,[11],60 µM
IIGGFYSYFNSVLRLGT (not fully specified) [NNRPγ-4-A1-IR],IR/IGF-1R ratio comparison,[1],0.2
RGCNDDGGKGWSDDPFYHKLSELICGG [B6Hα-1-A2-IR],IGF-1R/IR ratio comparison,[12],14.6
MMVVDGFYDALHQLVVAQSLG [20E2A-3-D10-IGFR],IR/IGF-1R ratio comparison,[1],0.3
B4,"Cellular EC50 (M), MCF-7 cell proliferation",[6],3.5e-07 M
same,"Cellular EC50 (M), MiaPaCa cell proliferation",[7],2.5e-06 M
RCEEKQAEVGPSSDPFYHKMSELLGCR [B6Hα-3-E9-IR],IR/IGF-1R ratio comparison,[1],0.1
B5,"Cellular EC50 (M), MCF-7 cell proliferation",[6],4.1e-07 M
same,IC50,[8],1100 nM
B6,Kd,[5],960 nM
same,Kd,[2],960 nM
GGTEVDFYRALERLVRGQLGL [20E2B-3-D8-IGFR],IR/IGF-1R ratio comparison,[1],0.1
GCEVIVEEGDSADPFYHKLSELCQGS [B6Hα-2-D1-IR],IGF-1R/IR ratio comparison,[12],4.2
same,IR/IGF-1R ratio comparison,[1],0.2
HLADGQFHEKFYDWFERQISSRCNDC [H2CA-3-E11-IGFR],IGF-1R/IR ratio comparison,[12],2.2
LRIANLFYQRLWDLAFGGGG [20E2B-3-E8-IFGR],IR/IGF-1R ratio comparison,[1],0.1
YRGMLVLGRISGGAGKAASERPARIGQKVSAVNFYDWFV [A6L-0-H3-IR],IR/IGF-1R ratio comparison,[1],0.1
same,ratio over background,[1],2
RGIVAMVEATEVGSDHDPFYHKLSELVQGS [B6Hα-2-C7-IR],IGF-1R/IR ratio comparison,[12],6.7
TFYSCLASLLTGTPQPNRGPWERCRKK (disulfide 5-24 (inferred)) [RP6KK],"Cellular IC50 (M), MCF-7 cell proliferation",[13],9e-06 M
same,"Cellular IC50 (M), FDC-P2 cell proliferation",[3],1e-06 M
same,IC50,[14],0.18 µM
GRTMAVMAAGGPDDPFYHKLSELVQGG [B6Hα-2-D6-IR],IGF-1R/IR ratio comparison,[12],4.4
YRGMLVLGRSSDGAGKVAFERPARIGQTVFAVNFYDWFV [A6L-0-E6-IR],IR/IGF-1R ratio comparison,[1],0.1
TFYSCLASLLTGTPQPNRGPWERCR [RP6],IC50,[4],350 nM
CWARPCGDAANFYDWFVQQAS (also called C1 (D112); D112) [C1],"Cellular IC50 (M), FDC-P2 cell proliferation",[3],4e-06 M
same,IC50,[15],52 nM
same,IC50,[4],42 nM
WLDQERAWLWCEISGRGCLS [D815],"Cellular EC50 (M), FDC-P2 cell proliferation",[16],3e-06 M and 1e-06 M
VGRASGFPENFYDWFGRQLSLQSGEQ [H2C-A-H6],"Cellular IC50 (M), MCF-7 cell proliferation",[13],4e-07 M
same,"Cellular IC50 (M), FDC-P2 cell proliferation",[3],3e-07 M
same,IC50,[14],32 µM
same,IC50,[4],32000 nM
SSYGCDGFYLMLFSLGLVASQELEC [20C-3-A1-IGFR],IR/IGF-1R ratio comparison,[1],0.1
GIISQSCPESFYDWFAGQVSDPWWCW [G33],"Cellular EC50 (M), MCF-7 cell proliferation",[6],3e-07 M
same,"Cellular EC50 (M), FDC-P2 cell proliferation",[16],2e-06 M
same,IC50,[8],600 nM
same,IC50,[17],600 nM
GNGDGMFYQLLSLLVGRDMHV [20E2B-3-C2-IGFR],IGF-1R/IR ratio comparison,[12],13.8
same,IR/IGF-1R ratio comparison,[1],0.1
DRDFCRFYERLTALVGGQVDGGWPC [20C-3-F6-IGFR],IGF-1R/IR ratio comparison,[12],14.1
same,IR/IGF-1R ratio comparison,[1],0.1
CCTTEMVVMDARDDPFYHKLSELVTGG [B6Hα-1-B5-IR],IGF-1R/IR ratio comparison,[12],20.5
LGVTDGFYAALGYLIHGVGQF [20E2B-3-D11-IGFR],IGF-1R/IR ratio comparison,[12],7.6
same,IR/IGF-1R ratio comparison,[1],0.1
LQPCSGFYECIERLIGVKLSG (not fully specified; cysteine pairing not given here) [20E2Bβ-4-G7-IR],IR/IGF-1R ratio comparison,[1],0.1
